Test [1] addresses Recombinant human truncated Tissue Factor (tTF) (human) (UniProt P13726). Put plainly: cell-based or functional assay.
In test [2] the target is I-A^d MHC Class II antigen on A20 cells (mouse) (UniProt P04228). Put plainly: 125I-labelled Fab' binding to A20 cells.
The target is the same in test [3]. The test can be described thus: method not given.
The target of test [4] is Recombinant human truncated Tissue Factor (tTF) (human) (UniProt P13726). The test can be described thus: 125I-tTF (in molar excess) tethered to A20 cells (I-A^d) through the bispecific antibody, at saturation.

Sequence of UniProt P13726 (P13726 33-251): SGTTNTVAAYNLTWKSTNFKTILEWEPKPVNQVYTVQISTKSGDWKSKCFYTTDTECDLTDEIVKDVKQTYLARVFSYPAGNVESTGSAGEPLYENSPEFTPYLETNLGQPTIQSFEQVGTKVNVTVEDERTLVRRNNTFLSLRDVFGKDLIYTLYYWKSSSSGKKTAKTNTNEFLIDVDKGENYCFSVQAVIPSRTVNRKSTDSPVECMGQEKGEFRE
Sequence of UniProt P04228 (P04228 24-256, chain 1 of 2): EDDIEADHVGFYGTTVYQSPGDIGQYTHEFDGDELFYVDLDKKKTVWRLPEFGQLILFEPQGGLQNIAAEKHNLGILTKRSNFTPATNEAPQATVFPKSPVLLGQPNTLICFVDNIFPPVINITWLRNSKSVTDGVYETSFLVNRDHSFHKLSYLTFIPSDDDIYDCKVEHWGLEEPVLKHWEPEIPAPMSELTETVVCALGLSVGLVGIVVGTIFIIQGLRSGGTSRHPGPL
Sequence of UniProt P04228 (P01921 28-265, chain 2 of 2, further chain): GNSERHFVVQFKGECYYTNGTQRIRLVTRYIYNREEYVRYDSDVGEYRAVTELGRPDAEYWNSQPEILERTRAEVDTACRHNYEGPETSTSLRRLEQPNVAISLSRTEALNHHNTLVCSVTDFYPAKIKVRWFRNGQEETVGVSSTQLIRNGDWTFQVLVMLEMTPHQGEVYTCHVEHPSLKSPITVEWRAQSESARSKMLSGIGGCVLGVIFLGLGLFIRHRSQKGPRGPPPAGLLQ

In the case of 10H10 F(ab')2, the Coagulation time (sec) of mouse plasma added to A20 cells incubated with the reagents in test [1] was 160 s. Still for that read-out and setting: for 10H10 Fab' the value was 162 s.

Consider B21-2 F(ab')2, for which the Coagulation time (sec) of mouse plasma added to A20 cells incubated with the reagents in test [1] was determined as 168 s. On to B21-2 Fab′, for which the Coagulation time (sec) of mouse plasma added to A20 cells incubated with the reagents in test [1] worked out at 165 s. This substance also yielded a concentration at which saturation of binding is reached in test [2] of 21.5 nM. B21-2 antibody: the fold better affinity than M5/114 in test [3] came to 10 fold. As for B21-2/10H10 bispecific antibody, in test [1], the Coagulation time (sec) of mouse plasma added to A20 cells incubated with the reagents worked out at 36 s; the coagulation time of mouse plasma, A20 cells incubated with 21.5 nM bispecific antibody and 69 nM tTF worked out at 60 s. Further, in test [4], the molecules of tTF bound per A20 cell (molecules per cell) turned out to be 310000.

For the substance B21-2/OX7 bispecific antibody, in test [1], the Coagulation time (sec) of mouse plasma added to A20 cells incubated with the reagents was 165 s; the coagulation time of mouse plasma, A20 cells incubated with 21.5 nM bispecific antibody and 69 nM tTF was 140 s. The like results for SFR8/10H10 bispecific antibody were, in that order, 154 s and 140 s.

(Values after patent publication US20030219441A1.)
